In the Human Domainome abundance scans (Beltran et al. 2025):
± gives the uncertainty stated by the source.

B1: Lysine-specific demethylase 5C, residues 319 to 373; numbered along this chain, P41229 (parent)
chain: AQFIESYVCRMCSRGDEDDKLLLCDGCDDNYHIFCLLPPLPEIPKGVWRCPKCVM

Variants of: B1
Test: abundance fitness (aPCA) (normalised: wild type 0, dead -1); higher = more abundant; growth selection in yeast, the domain comes from the species named
Details: Homo sapiens
Work on Y7A yielded an abundance fitness of 0.18 ± 0.13.
With Y7K the abundance fitness was 0.155 ± 0.17.
In the case of Y7I, the abundance fitness is reported as -0.023 ± 0.18.
Y7T showed an abundance fitness of 0.199 ± 0.12.
Variant Y7H has an abundance fitness of -0.09 ± 0.16.
Variant Y7V has an abundance fitness of -0.121 ± 0.12.
Work on Y7R yielded an abundance fitness of 0.14 ± 0.091.
In the case of Y7D, the abundance fitness is reported as 0.173 ± 0.48.
Y7F showed an abundance fitness of -0.14 ± 0.26.
Work on Y7Q yielded an abundance fitness of -0.052 ± 0.18.
Work on Y7L yielded an abundance fitness of -0.057 ± 0.1.
For Y7M, the abundance fitness was 0.078 ± 0.2.
Variant Y7W has an abundance fitness of -0.266 ± 0.17.
For Y7P, the abundance fitness was -0.073 ± 0.17.
With Y7S the abundance fitness was 0.139 ± 0.091.
In the case of Y7E, the abundance fitness is reported as 0.193 ± 0.19.
In the case of L23C, the abundance fitness is reported as -0.122 ± 0.14.
With L23H the abundance fitness was -0.302 ± 0.28.
Work on L23F yielded an abundance fitness of -0.405 ± 0.27.
Work on L23K yielded an abundance fitness of 0.169 ± 0.1.
L23A showed an abundance fitness of 0.044 ± 0.1.
L23G showed an abundance fitness of -0.086 ± 0.093.
With L23D the abundance fitness was 0.084 ± 0.16.
Work on L23E yielded an abundance fitness of -0.078 ± 0.13.
L23I showed an abundance fitness of -0.156 ± 0.14.
Variant D16R has an abundance fitness of -0.026 ± 0.1.
For D16S, the abundance fitness was 0.104 ± 0.093.
D16K gave an abundance fitness of -0.265 ± 0.15.
Variant D16C has an abundance fitness of -0.115 ± 0.15.
In the case of D16T, the abundance fitness is reported as -0.182 ± 0.12.
D16V showed an abundance fitness of -0.029 ± 0.1.
Work on D16M yielded an abundance fitness of 0.086 ± 0.13.
For D16A, the abundance fitness was -0.063 ± 0.12.
D16E showed an abundance fitness of -0.072 ± 0.12.
D16G gave an abundance fitness of 0.085 ± 0.1.
D16N showed an abundance fitness of 0.131 ± 0.18.
Variant D16I has an abundance fitness of 0.089 ± 0.19.
In the case of D16W, the abundance fitness is reported as -0.351 ± 0.18.
Variant D16Y has an abundance fitness of -0.115 ± 0.19.
Work on D16F yielded an abundance fitness of 0.277 ± 0.17.
Work on D16Q yielded an abundance fitness of -0.16 ± 0.14.
With R10D the abundance fitness was -0.384 ± 0.33.
In the case of R10T, the abundance fitness is reported as 0.082 ± 0.29.
Work on R10P yielded an abundance fitness of -0.394 ± 0.29.
For R10L, the abundance fitness was 0.021 ± 0.21.
With R10S the abundance fitness was -0.28 ± 0.24.
Work on R10A yielded an abundance fitness of -0.148 ± 0.12.
Work on R10Y yielded an abundance fitness of -0.175 ± 0.44.
Work on R10C yielded an abundance fitness of -0.108 ± 0.49.
Variant R10M has an abundance fitness of -0.036 ± 0.25.
R10E gave an abundance fitness of -0.1 ± 0.28.
Work on R10V yielded an abundance fitness of -0.137 ± 0.16.
Work on R10Q yielded an abundance fitness of -0.609 ± 0.45.
In the case of L21C, the abundance fitness is reported as -0.304 ± 0.15.
With L21N the abundance fitness was -0.366 ± 0.12.
L21F gave an abundance fitness of -0.078 ± 0.1.
Variant L21E has an abundance fitness of -0.531 ± 0.27.
L21Y gave an abundance fitness of -0.338 ± 0.11.
Variant L21T has an abundance fitness of -0.164 ± 0.09.
With L21S the abundance fitness was -0.605 ± 0.09.
L21R showed an abundance fitness of -0.221 ± 0.11.
L21M gave an abundance fitness of -0.167 ± 0.14.
In the case of L21P, the abundance fitness is reported as -0.683 ± 0.098.
With L21I the abundance fitness was -0.044 ± 0.12.
Work on L21Q yielded an abundance fitness of -0.353 ± 0.19.
L21V showed an abundance fitness of -0.348 ± 0.11.
With L21H the abundance fitness was -0.458 ± 0.11.
In the case of L21D, the abundance fitness is reported as -0.87 ± 0.26.
L21A gave an abundance fitness of -0.426 ± 0.1.
For C9Y, the abundance fitness was -0.955 ± 0.22.
In the case of C9L, the abundance fitness is reported as -0.978 ± 0.19.
Work on C9T yielded an abundance fitness of -0.726 ± 0.15.
In the case of C9W, the abundance fitness is reported as -0.937 ± 0.28.
C9D gave an abundance fitness of -0.847 ± 0.23.
In the case of C9F, the abundance fitness is reported as -0.659 ± 0.23.
With C9V the abundance fitness was -0.792 ± 0.15.
Work on C9S yielded an abundance fitness of -0.82 ± 0.11.
C9A showed an abundance fitness of -0.797 ± 0.13.
Variant C9G has an abundance fitness of -0.655 ± 0.15.
C9H showed an abundance fitness of -0.798 ± 0.28.
Work on C9R yielded an abundance fitness of -0.827 ± 0.16.
For S6G, the abundance fitness was -0.042 ± 0.15.
S6I gave an abundance fitness of -0.445 ± 0.2.
With S6W the abundance fitness was -0.414 ± 0.18.
S6C gave an abundance fitness of -0.361 ± 0.19.
Variant S6D has an abundance fitness of -0.523 ± 0.37.
Variant S6Y has an abundance fitness of -0.1 ± 0.24.
With S6H the abundance fitness was -0.294 ± 0.23.
S6F showed an abundance fitness of -0.154 ± 0.14.
S6Q showed an abundance fitness of -0.409 ± 0.22.
Work on S6V yielded an abundance fitness of -0.377 ± 0.19.
Work on S6M yielded an abundance fitness of 0.217 ± 0.13.
For S6T, the abundance fitness was 0.148 ± 0.14.
Variant S6N has an abundance fitness of 0.183 ± 0.19.
In the case of S6R, the abundance fitness is reported as 0.001 ± 0.11.
S6K showed an abundance fitness of -0.295 ± 0.25.
Variant S6P has an abundance fitness of -0.097 ± 0.17.
S6A showed an abundance fitness of -0.068 ± 0.19.
S6E gave an abundance fitness of -0.08 ± 0.21.
For E5D, the abundance fitness was 0.054 ± 0.19.
E5K showed an abundance fitness of 0.036 ± 0.19.
E5Q gave an abundance fitness of 0.02 ± 0.17.
E5T gave an abundance fitness of -0.078 ± 0.16.
Variant E5L has an abundance fitness of -0.378 ± 0.12.
Variant E5R has an abundance fitness of 0.046 ± 0.12.
E5I gave an abundance fitness of -0.283 ± 0.17.
In the case of E5V, the abundance fitness is reported as -0.481 ± 0.11.
Variant E5H has an abundance fitness of -0.263 ± 0.28.
E5P gave an abundance fitness of -0.435 ± 0.21.
E5M showed an abundance fitness of 0.145 ± 0.15.
E5W gave an abundance fitness of -0.451 ± 0.24.
E5C gave an abundance fitness of 0.046 ± 0.17.
In the case of E5S, the abundance fitness is reported as -0.125 ± 0.1.
With E5Y the abundance fitness was -0.162 ± 0.18.
E5G showed an abundance fitness of -0.128 ± 0.13.
E5N showed an abundance fitness of 0.275 ± 0.19.
For E17I, the abundance fitness was -0.052 ± 0.21.
Variant E17T has an abundance fitness of 0.087 ± 0.14.
For E17Y, the abundance fitness was -0.285 ± 0.24.
Variant E17V has an abundance fitness of 0.22 ± 0.11.
With E17F the abundance fitness was -0.062 ± 0.23.
For E17N, the abundance fitness was 0.257 ± 0.22.
In the case of E17D, the abundance fitness is reported as 0.078 ± 0.13.
Variant E17A has an abundance fitness of 0.123 ± 0.11.
With E17G the abundance fitness was 0.023 ± 0.091.
E17W showed an abundance fitness of -0.176 ± 0.16.
For E17C, the abundance fitness was 0.261 ± 0.19.
Work on E17H yielded an abundance fitness of -0.245 ± 0.23.
E17S gave an abundance fitness of -0.052 ± 0.1.
Work on E17K yielded an abundance fitness of -0.122 ± 0.16.
Work on E17P yielded an abundance fitness of -0.1 ± 0.14.
Work on E17Q yielded an abundance fitness of -0.064 ± 0.12.
Variant M11K has an abundance fitness of 0.169 ± 0.13.
Variant M11H has an abundance fitness of -0.281 ± 0.22.
With M11C the abundance fitness was -0.085 ± 0.18.
With M11L the abundance fitness was -0.264 ± 0.093.
M11R gave an abundance fitness of 0.073 ± 0.086.
In the case of M11W, the abundance fitness is reported as -0.18 ± 0.13.
M11D showed an abundance fitness of -0.063 ± 0.23.
M11V showed an abundance fitness of -0.135 ± 0.12.
With M11E the abundance fitness was 0.171 ± 0.14.
For M11I, the abundance fitness was -0.121 ± 0.21.
In the case of M11Q, the abundance fitness is reported as 0.045 ± 0.14.
With M11N the abundance fitness was 0.045 ± 0.21.
Variant M11A has an abundance fitness of -0.079 ± 0.096.
For M11P, the abundance fitness was -0.669 ± 0.17.
Variant M11S has an abundance fitness of -0.138 ± 0.11.
Work on M11G yielded an abundance fitness of -0.072 ± 0.11.
M11T gave an abundance fitness of -0.211 ± 0.16.
With I4Q the abundance fitness was 0.451 ± 0.2.
With I4C the abundance fitness was -0.106 ± 0.24.
With I4L the abundance fitness was -0.338 ± 0.11.
Work on I4V yielded an abundance fitness of -0.019 ± 0.11.
In the case of I4P, the abundance fitness is reported as -0.118 ± 0.15.
In the case of I4M, the abundance fitness is reported as 0.115 ± 0.14.
In the case of I4Y, the abundance fitness is reported as -0.687 ± 0.24.
For I4R, the abundance fitness was -0.3 ± 0.13.
I4A gave an abundance fitness of -0.188 ± 0.13.
Work on I4K yielded an abundance fitness of -0.033 ± 0.18.
With I4N the abundance fitness was -0.35 ± 0.18.
With I4T the abundance fitness was 0.201 ± 0.13.
For I4E, the abundance fitness was -0.145 ± 0.19.
In the case of I4W, the abundance fitness is reported as -0.287 ± 0.18.
For I4D, the abundance fitness was -0.058 ± 0.18.
For I4F, the abundance fitness was -0.098 ± 0.16.
Work on I4H yielded an abundance fitness of -0.111 ± 0.17.
I4G showed an abundance fitness of -0.302 ± 0.2.
